Assay results: the supplement of paper PMC10567573

B1: PTPRD (parent)
chain: FICQATGDPRPKIVWNKKGKKVSN

Variants of: B1
Assay: protein stability index of a GFP-peptide fusion (GPS, HEK-293T) (PSI 1-6); higher = more stable
Settings: c terminus: a fixed tail appended
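Note: lentivirally expressed fusions sorted by FACS into six bins by GFP to DsRed ratio, PSI derived from sequencing read proportions per bin multiplied by bin number.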

Variant | protein stability index
FICQATYDPRPKIVWNKKGKKVSN | 1.7
FICQATQDPRPKIVWNKKGKKVSN | 2.22
FICQATWDPRPKIVWNKKGKKVSN | 3.96
FICQATSDPRPKIVWNKKGKKVSN | 2.02
FICQATTDPRPKIVWNKKGKKVSN | 2.01
FICQATVDPRPKIVWNKKGKKVSN | 1.81
FICQATNDPRPKIVWNKKGKKVSN | 1.97
FICQATPDPRPKIVWNKKGKKVSN | 2.32
FICQATRDPRPKIVWNKKGKKVSN | 1.92
FICQATGDPRPKIVWNNKGKKVSN | 2.31
FICQATGDPRPKIVWNDKGKKVSN | 1.74
FICQATGDPRPKIVWNIKGKKVSN | 1.31
FICQATGDPRPKIVWNCKGKKVSN | 1.92
FICQATGDPRPKIVWNQKGKKVSN | 1.84
FICQATGDPRPKIVWNAKGKKVSN | 1.37
FICQATGDPRPKIVWNLKGKKVSN | 1.78
FICQATGDPRPKIVWNVKGKKVSN | 1.9
FICQATGDPRPKIVWNEKGKKVSN | 1.34
FICQATGDPRPKIVWNFKGKKVSN | 1.56
FICQATGDPRPKIVWNHKGKKVSN | 1.96
FICQATGDPRPKIVWNGKGKKVSN | 1.77
FICQATGDPRPKIVWNWKGKKVSN | 2.78
FICQATGDPRPKIVWNTKGKKVSN | 1.55
FICQATGDPRPKIVWNSKGKKVSN | 1.79

Variant | protein stability index
FICQATGDPRPKIVWNPKGKKVSN | 2.81
FICQATGDPRPKIVWNMKGKKVSN | 1.78
FICQATGDPRPKIVWNRKGKKVSN | 2.21
FICQATGDPRPKIVCNKKGKKVSN | 2.57
FICQATGDPRPKIVYNKKGKKVSN | 2.25
FICQATGDPRPKIVQNKKGKKVSN | 2.73
FICQATGDPRPKIVGNKKGKKVSN | 2.26
FICQATGDPRPKIVANKKGKKVSN | 2.48
FICQATGDPRPKIVKNKKGKKVSN | 2.12
FICQATGDPRPKIVHNKKGKKVSN | 2.15
FICQATGDPRPKIVRNKKGKKVSN | 2.6
FICQATGDPRPKIVENKKGKKVSN | 2.67
FICQATGDPRPKIVMNKKGKKVSN | 2.9
FICQATGDPRPKIVINKKGKKVSN | 2.26
FICQATGDPRPKIVVNKKGKKVSN | 2.76
FICQATGDPRPKIVLNKKGKKVSN | 2.16
FICQATGDPRPKIVPNKKGKKVSN | 2.56
FICQATGDPRPKIVTNKKGKKVSN | 2.85
FICQATGDPRPKIVFNKKGKKVSN | 2.5
FICQATGDPRPKIVSNKKGKKVSN | 2.7
FICQATGDPRPKIVNNKKGKKVSN | 2.53
FICQATGDPRPKIVDNKKGKKVSN | 2.73
FICQATGDPRPKIWWNKKGKKVSN | 2.18
FICQATGDPRPKIYWNKKGKKVSN | 1.59

Variant | protein stability index
FICQATGDPRPKIFWNKKGKKVSN | 3.73
FICQATGDPRPKIDWNKKGKKVSN | 2.35
FICQATGDPRPKIAWNKKGKKVSN | 2.23
FICQATGDPRPKIRWNKKGKKVSN | 1.78
FICQATGDPRPKIMWNKKGKKVSN | 1.67
FICQATGDPRPKINWNKKGKKVSN | 1.73
FICQATGDPRPKIEWNKKGKKVSN | 2.7
FICQATGDPRPKITWNKKGKKVSN | 2.5
FICQATGDPRPKIKWNKKGKKVSN | 2.4
FICQATGDPRPKISWNKKGKKVSN | 2.27
FICQATGDPRPKIIWNKKGKKVSN | 2.23
FICQATGDPRPKIHWNKKGKKVSN | 2.27
FICQATGDPRPKIPWNKKGKKVSN | 2.21
FICQATGDPRPKIGWNKKGKKVSN | 2
FICQATGDPRPKIQWNKKGKKVSN | 2.01
FICQATGDPRMKIVWNKKGKKVSN | 1.03
FICQATGDPRSKIVWNKKGKKVSN | 2.18
FICQATGDPRKKIVWNKKGKKVSN | 1.45
FICQATGDPRHKIVWNKKGKKVSN | 2.4
FICQATGDPRQKIVWNKKGKKVSN | 2.19
FICQATGDPRYKIVWNKKGKKVSN | 2.31
FICQATGDPRFKIVWNKKGKKVSN | 1.52
FICQATGDPRNKIVWNKKGKKVSN | 1.87
FICQATGDPREKIVWNKKGKKVSN | 2.88

Variant | protein stability index
FICQATGDPRAKIVWNKKGKKVSN | 2.34
FICQATGDPRIKIVWNKKGKKVSN | 2.31
FICQATGDPRVKIVWNKKGKKVSN | 1.18
FICQATGDPRRKIVWNKKGKKVSN | 2.5
FICQATGDPRDKIVWNKKGKKVSN | 2.11
FICQATGDPRWKIVWNKKGKKVSN | 1.87
FICQATGDPRLKIVWNKKGKKVSN | 3.08
FICQATGDPRGKIVWNKKGKKVSN | 2.04
FICQATGDPRCKIVWNKKGKKVSN | 1.32
FICQATGDPRTKIVWNKKGKKVSN | 2.07
FICQATGDPMPKIVWNKKGKKVSN | 2.58
FICQATGDPEPKIVWNKKGKKVSN | 1.61
FICQATGDPVPKIVWNKKGKKVSN | 1.88
FICQATGDPHPKIVWNKKGKKVSN | 1.79
FICQATGDPNPKIVWNKKGKKVSN | 1.83
FICQATGDPQPKIVWNKKGKKVSN | 2.06
FICQATGDPPPKIVWNKKGKKVSN | 2.41
FICQATGDPAPKIVWNKKGKKVSN | 1.98
FICQATGDPDPKIVWNKKGKKVSN | 1.82
FICQATGDPCPKIVWNKKGKKVSN | 1.84
FICQATGDPLPKIVWNKKGKKVSN | 1.83
FICQATGDPTPKIVWNKKGKKVSN | 2
FICQATGDPFPKIVWNKKGKKVSN | 1.89
FICQATGDPIPKIVWNKKGKKVSN | 2.08

Variant | protein stability index
FICQATGDPSPKIVWNKKGKKVSN | 1.81
FICQATGDPKPKIVWNKKGKKVSN | 2.95
FICQATGDPRPKIVWRKKGKKVSN | 1.96
FICQATGDPRPKIVWHKKGKKVSN | 1.74
FICQATGDPRPKIVWSKKGKKVSN | 2.24
FICQATGDPRPKIVWMKKGKKVSN | 1.74
FICQATGDPRPKIVWWKKGKKVSN | 1.48
FICQATGDPRPKIVWKKKGKKVSN | 2.25
FICQATGDPRPKIVWLKKGKKVSN | 1.91
FICQATGDPRPKIVWQKKGKKVSN | 2.56
FICQATGDPRPKIVWEKKGKKVSN | 2.75
FICQATGDPRPKIVWVKKGKKVSN | 1.37
FICQATGDPRPKIVWDKKGKKVSN | 2.45
FICQATGDPRPKIVWGKKGKKVSN | 1.05
FICQATGDPRPKIVWIKKGKKVSN | 1.99
FICQATGDPRPKIVWPKKGKKVSN | 1.75
FICQATGDPRPKIVWCKKGKKVSN | 1.73
FICQATGDPRPKIVWTKKGKKVSN | 1.91
FICQATGDPRPKIVWFKKGKKVSN | 2.04
FICQATGDPRPKIVWYKKGKKVSN | 1.89
FICQATGDPRPKIVWAKKGKKVSN | 1.72
FICQATGDQRPKIVWNKKGKKVSN | 1.83
FICQATGDMRPKIVWNKKGKKVSN | 2.36
FICQATGDHRPKIVWNKKGKKVSN | 2.29

Variant | protein stability index
FICQATGDFRPKIVWNKKGKKVSN | 1.99
FICQATGDLRPKIVWNKKGKKVSN | 2.49
FICQATGDSRPKIVWNKKGKKVSN | 2
FICQATGDKRPKIVWNKKGKKVSN | 1.54
FICQATGDARPKIVWNKKGKKVSN | 1.84
FICQATGDCRPKIVWNKKGKKVSN | 1.49
FICQATGDYRPKIVWNKKGKKVSN | 1.53
FICQATGDERPKIVWNKKGKKVSN | 1.99
FICQATGDNRPKIVWNKKGKKVSN | 2.31
FICQATGDDRPKIVWNKKGKKVSN | 2.14
FICQATGDWRPKIVWNKKGKKVSN | 1.53
FICQATGDTRPKIVWNKKGKKVSN | 1.88
FICQATGDGRPKIVWNKKGKKVSN | 1.4
FICQATGDIRPKIVWNKKGKKVSN | 2.21
FICQATGDVRPKIVWNKKGKKVSN | 2.27
FICQATGDPRPKMVWNKKGKKVSN | 1.51
FICQATGDPRPKHVWNKKGKKVSN | 1.74
FICQATGDPRPKCVWNKKGKKVSN | 1.99
FICQATGDPRPKYVWNKKGKKVSN | 1.86
FICQATGDPRPKKVWNKKGKKVSN | 1.74
FICQATGDPRPKAVWNKKGKKVSN | 1.83
FICQATGDPRPKQVWNKKGKKVSN | 2.02
FICQATGDPRPKWVWNKKGKKVSN | 1.87
FICQATGDPRPKEVWNKKGKKVSN | 2.1

Variant | protein stability index
FICQATGDPRPKTVWNKKGKKVSN | 1.73
FICQATGDPRPKVVWNKKGKKVSN | 2.97
FICQATGDPRPKNVWNKKGKKVSN | 1.88
FICQATGDPRPKSVWNKKGKKVSN | 1.52
FICQATGDPRPKLVWNKKGKKVSN | 1.45
FICQATGDPRPKFVWNKKGKKVSN | 1.62
FICQATGDPRPKRVWNKKGKKVSN | 2.46
FICQATGDPRPKPVWNKKGKKVSN | 1.75
FICQATGDPRPKGVWNKKGKKVSN | 2.6
FICQATGDPRPVIVWNKKGKKVSN | 1.61
FICQATGDPRPAIVWNKKGKKVSN | 1.87
FICQATGDPRPIIVWNKKGKKVSN | 1.89
FICQATGDPRPCIVWNKKGKKVSN | 1.9
FICQATGDPRPEIVWNKKGKKVSN | 1.52
FICQATGDPRPQIVWNKKGKKVSN | 1.94
FICQATGDPRPMIVWNKKGKKVSN | 1.58
FICQATGDPRPDIVWNKKGKKVSN | 1.18
FICQATGDPRPNIVWNKKGKKVSN | 1.95
FICQATGDPRPSIVWNKKGKKVSN | 2.17
FICQATGDPRPHIVWNKKGKKVSN | 1.86
FICQATGDPRPRIVWNKKGKKVSN | 1.44
FICQATGDPRPLIVWNKKGKKVSN | 3.35
FICQATGDPRPYIVWNKKGKKVSN | 1.41
FICQATGDPRPGIVWNKKGKKVSN | 2.28

Variant | protein stability index
FICQATGDPRPTIVWNKKGKKVSN | 2.26
FICQATGDPRPWIVWNKKGKKVSN | 1.6
FICQATGDPRPPIVWNKKGKKVSN | 1.96
FICQATGMPRPKIVWNKKGKKVSN | 1.8
FICQATGIPRPKIVWNKKGKKVSN | 2.33
FICQATGTPRPKIVWNKKGKKVSN | 2.11
FICQATGRPRPKIVWNKKGKKVSN | 2.24
FICQATGLPRPKIVWNKKGKKVSN | 1.5
FICQATGSPRPKIVWNKKGKKVSN | 1.92
FICQATGKPRPKIVWNKKGKKVSN | 2.5
FICQATGPPRPKIVWNKKGKKVSN | 1.8
FICQATGYPRPKIVWNKKGKKVSN | 1.45
FICQATGHPRPKIVWNKKGKKVSN | 1.6
FICQATGNPRPKIVWNKKGKKVSN | 2.16
FICQATGFPRPKIVWNKKGKKVSN | 1.85
FICQATGGPRPKIVWNKKGKKVSN | 1.98
FICQATGQPRPKIVWNKKGKKVSN | 1.77
FICQATGAPRPKIVWNKKGKKVSN | 2.04
FICQATGCPRPKIVWNKKGKKVSN | 1.94
FICQATGEPRPKIVWNKKGKKVSN | 1.91
